Experimental data: patent publication EP2265632B1 (Elevation Biotech (Pty) Ltd., dated 2009)

Target: recombinant HIV-1BaL gp120 (HIV-1 BaL)
Assay: SPR (Biacore 3000), gp120BaL immobilised on CM5 chip, peptide as analyte

B1: 12p1 (RINNIPWSEAMM), 12-mer peptide (peptide)
peptide: H-RINNIPWSEAMM-NH2
notes: Quality control peptide of the SPR assay
- Kd: 1020 nM
